Common to all, as to assay: EMSA
What all share (conditions): EMSA: 10 mM Tris pH 7.5, 50 mM KCl, 1 mM EDTA, 1 mM DTT, 5% glycerol, 100 ug/mL BSA, 5 ug/mL poly(dI-dC), 0.25 nM probe, 25 C; footprinting: 10 mM Tris pH 8.0 …

Series [1] deals with T1, His6-AlgR (Pseudomonas aeruginosa PAK) (UniProt P26275).
T1 sequence: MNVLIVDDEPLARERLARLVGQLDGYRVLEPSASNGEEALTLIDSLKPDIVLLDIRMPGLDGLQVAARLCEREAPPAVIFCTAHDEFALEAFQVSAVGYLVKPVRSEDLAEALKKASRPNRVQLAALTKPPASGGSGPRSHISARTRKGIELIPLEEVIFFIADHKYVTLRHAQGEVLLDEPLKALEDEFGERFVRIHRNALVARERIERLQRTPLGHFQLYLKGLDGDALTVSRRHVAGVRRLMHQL

For series [2], the target named is T2, Vfr;His6-AlgR (Pseudomonas aeruginosa;Pseudomonas aeruginosa PAK) (UniProt P55222+P26275).
T2 sequence 1: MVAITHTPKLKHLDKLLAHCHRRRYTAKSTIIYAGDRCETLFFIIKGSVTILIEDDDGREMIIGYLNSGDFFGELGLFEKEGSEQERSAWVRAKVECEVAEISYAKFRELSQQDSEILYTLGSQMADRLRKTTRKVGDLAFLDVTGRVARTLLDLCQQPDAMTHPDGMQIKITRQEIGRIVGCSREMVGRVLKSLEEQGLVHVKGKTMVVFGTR
T2 sequence 2: T1 sequence

Series [3] deals with T3, Vfr (Pseudomonas aeruginosa) (UniProt P55222).
T3 sequence: T2 sequence 1

The subject of series [4] is His6-AlgR (Pseudomonas aeruginosa PAK).

Consider “GCATACCGTTGCCTGGCAACTGATCCTCAACCGGCAGGGCCGGCTCCGTACCGCGAGCGCCAGGGAGAACCGGGAGAAACGTGAGCTATGCAGCACTTCCGGATGATCATGGACCAGTTGTCCTGCCCCACGGGCCGACCGTCAACGACCGCAAGACGCTCCCAGGCCCGTTTGGCATGCTTTCCAGGCGTAGAC (double strand) [PfimU WT]”, for which the binding entry in series [1], in series [2] and in series [3] was “binds” in each case.

Turning to “GTACGGGCGAAATAAAGCACCGAAATGCCATCTGCCGCAAAAAACCGCGAAACAGCGCTCGTTCCGGCTTCGTCGACGAGCCGCCGGTTTTTCCTCCCGGCCAGTAATCATCGTTGCCCTTTGCCCGTCACGCAGGCCGCGCG (double strand) [PalgZ VBS1 mutant]”, the binding result in series [3] was “binds more weakly”.

As to “GTACGGGCGAAATAAAGCACCGAAATGTCATCTGCCAAATCAAACCACAGAACAGCGATACTTCCGGCTTCGTCGACGAGCCGCCGGTTTTTCCTCCCGGCCAGTAATCATCGTTGCCCTTTGCCCGTCACGCAGGCCGCGCG (double strand) [PalgZ VBS1-2-3 mutant]”, the binding result in series [3] is recorded as “no binding”.

For the substance “GTACGGGCGAAATAAAGCACCGAAATGTCATCTGCCAAATCAAACCACAGAACAGCGATACTTCCGGCTTCGTCGACGAGCCGCCGGTTTTTCCTCCCGGCCTGCTATCATCGTCGCACTTTGCCCGTCACGCAGGCCGCGCG (double strand) [PalgZ VBS2-3 mutant]”, the binding entry in series [3] is on record as “binds more weakly”.

Consider “GTACGGGCGAAATAAAGCACCGAAATGTCATCTGCCAAATCAAACCGCGAAACAGCGCTCGTTCCGGCTTCGTCGACGAGCCGCCGGTTTTTCCTCCCGGCCAGTAATCATCGTTGCCCTTTGCCCGTCACGCAGGCCGCGCG (double strand) [PalgZ VBS1-3 mutant (VBS1 and VBS3)]”, for which the binding entry in series [3] is on record as “binds more weakly”.

As to “GTACGGGCGAAATAAAGCACCGAAATGTCATCTGCCAAATCAAACCGCGAAACAGCGCTCGTTCCGGCTTCGTCGACGAGCCGCCGGTTTTTCCTCCCGGCCTGCTATCATCGTCGCACTTTGCCCGTCACGCAGGCCGCGCG (double strand) [PalgZ VBS3 mutant]”, in series [3], the binding result is recorded as “binds”.

In turn, PfimU WT had a K half in series [4] of over 351 nM.
